Experimental data reported in article PMC4635569, “Complement Evasion Mediated by Enhancement of Captured Factor H: Implications for Protection of Self-Surfaces from Complement” (The Journal of Immunology Author Choice, 2015).

B1: plasma-derived human complement factor H (natural protein)
chain: EDCNELPPRRNTEILTGSWSDQTYPEGTQAIYKCRPGYRSLGNVIMVCRKGEWVALNPLRKCQKRPCGHPGDTPFGTFTLTGGNVFEYGVKAVYTCNEGYQLLGEINYRECDTDGWTNDIPICEVVKCLPVTAPENGKIVSSAMEPDREYHFGQAVRFVCNSGYKIEGDEEMHCSDDGFWSKEKPKCVEISCKSPDVINGSPISQKIIYKENERFQYKCNMGYEYSERGDAVCTESGWRPLPSCEEKSCDNPYIPNGDYSPLRIKHRTGDEITYQCRNGFYPATRGNTAKCTSTGWIPAPRCTLKPCDYPDIKHGGLYHENMRRPYFPVAVGKYYSYYCDEHFETPSGSYWDHIHCTQDGWSPAVPCLRKCYFPYLENGYNQNYGRKFVQGKSIDVACHPGYALPKAQTTVTCMENGWSPTPRCIRVKTCSKSSIDIENGFISESQYTYALKEKAKYQCKLGYVTADGETSGSITCGKDGWSAQPTCIKSCDIPVFMNARTKNDFTWFKLNDTLDYECHDGYESNTGSTTGSIVCGYNGWSDLPICYERECELPKIDVHLVPDRKKDQYKVGEVLKFSCKPGFTIVGPNSVQCYHFGLSPDLPICKEQVQSCGPPPELLNGNVKEKTKEEYGHSEVVEYYCNPRFLMKGPNKIQCVDGEWTTLPVCIVEESTCGDIPELEHGWAQLSSPPYYYGDSVEFNCSESFTMIGHRSITCIHGVWTQLPQCVAIDKLKKCKSSNLIILEEHLKNKKEFDHNSNIRYRCRGKEGWIHTVCINGRWDPEVNCSMAQIQLCPPPPQIPNSHNMTTTLNYRDGEKVSVLCQENYLIQEGEEITCKDGRWQSIPLCVEKIPCSQPPQIEHGTINSSRSSQESYAHGTKLSYTCEGGFRISEENETTCYMGKWSSPPQCEGLPCKSPPEISHGVVAHMSDSYQYGEEVTYKCFEGFGIDGPAIAKCLGEKWSHPPSCIKTDCLSLPSFENAIPMGEKKDVYKAGEQVTYTCATYYKMDGASNVTCINSRWTGRPTCRDTSCVNPPTVQNAYIVSRQMSKYPSGERVRYQCRSPYEMFGDEEVMCLNGNWTEPPQCKDSTGKCGPPPPIDNGDITSFPLSVYAPASSVEYQCQNLYQLEGNKRITCRNGQWSEPPKCLHPCVISREIMENYNIALRWTAKQKLYSRTGESVEFVCKRGYRLSSRSHTLRTTCWDGKLEYPTCAKR
notes: complement factor H (FH), human, 20 CCP modules, plasma-derived; Glycosylated plasma protein; monomer of 155 kDa by SEC-MALS; also called FH; plasma-purified human FH; source: bought: Complement Technologies, plasma-derived, used without further purification
B2: recombinant human FH with a wild-type sequence (natural protein)
chain: EDCNELPPRRNTEILTGSWSDQTYPEGTQAIYKCRPGYRSLGNVIMVCRKGEWVALNPLRKCQKRPCGHPGDTPFGTFTLTGGNVFEYGVKAVYTCNEGYQLLGEINYRECDTDGWTNDIPICEVVKCLPVTAPENGKIVSSAMEPDREYHFGQAVRFVCNSGYKIEGDEEMHCSDDGFWSKEKPKCVEISCKSPDVINGSPISQKIIYKENERFQYKCNMGYEYSERGDAVCTESGWRPLPSCEEKSCDNPYIPNGDYSPLRIKHRTGDEITYQCRNGFYPATRGNTAKCTSTGWIPAPRCTLKPCDYPDIKHGGLYHENMRRPYFPVAVGKYYSYYCDEHFETPSGSYWDHIHCTQDGWSPAVPCLRKCYFPYLENGYNQNYGRKFVQGKSIDVACHPGYALPKAQTTVTCMENGWSPTPRCIRVKTCSKSSIDIENGFISESQYTYALKEKAKYQCKLGYVTADGETSGSITCGKDGWSAQPTCIKSCDIPVFMNARTKNDFTWFKLNDTLDYECHDGYESNTGSTTGSIVCGYNGWSDLPICYERECELPKIDVHLVPDRKKDQYKVGEVLKFSCKPGFTIVGPNSVQCYHFGLSPDLPICKEQVQSCGPPPELLNGNVKEKTKEEYGHSEVVEYYCNPRFLMKGPNKIQCVDGEWTTLPVCIVEESTCGDIPELEHGWAQLSSPPYYYGDSVEFNCSESFTMIGHRSITCIHGVWTQLPQCVAIDKLKKCKSSNLIILEEHLKNKKEFDHNSNIRYRCRGKEGWIHTVCINGRWDPEVNCSMAQIQLCPPPPQIPNSHNMTTTLNYRDGEKVSVLCQENYLIQEGEEITCKDGRWQSIPLCVEKIPCSQPPQIEHGTINSSRSSQESYAHGTKLSYTCEGGFRISEENETTCYMGKWSSPPQCEGLPCKSPPEISHGVVAHMSDSYQYGEEVTYKCFEGFGIDGPAIAKCLGEKWSHPPSCIKTDCLSLPSFENAIPMGEKKDVYKAGEQVTYTCATYYKMDGASNVTCINSRWTGRPTCRDTSCVNPPTVQNAYIVSRQMSKYPSGERVRYQCRSPYEMFGDEEVMCLNGNWTEPPQCKDSTGKCGPPPPIDNGDITSFPLSVYAPASSVEYQCQNLYQLEGNKRITCRNGQWSEPPKCLHPCVISREIMENYNIALRWTAKQKLYSRTGESVEFVCKRGYRLSSRSHTLRTTCWDGKLEYPTCAKR
notes: Secreted from P. pastoris, so the native signal peptide is probably absent (surmise); also called rFH; recombinant wild-type FH; source: Pichia pastoris (fermentor), purified after enzymatic deglycosylation
B3: recombinant FH(D1119G) (natural protein)
chain: EDCNELPPRRNTEILTGSWSDQTYPEGTQAIYKCRPGYRSLGNVIMVCRKGEWVALNPLRKCQKRPCGHPGDTPFGTFTLTGGNVFEYGVKAVYTCNEGYQLLGEINYRECDTDGWTNDIPICEVVKCLPVTAPENGKIVSSAMEPDREYHFGQAVRFVCNSGYKIEGDEEMHCSDDGFWSKEKPKCVEISCKSPDVINGSPISQKIIYKENERFQYKCNMGYEYSERGDAVCTESGWRPLPSCEEKSCDNPYIPNGDYSPLRIKHRTGDEITYQCRNGFYPATRGNTAKCTSTGWIPAPRCTLKPCDYPDIKHGGLYHENMRRPYFPVAVGKYYSYYCDEHFETPSGSYWDHIHCTQDGWSPAVPCLRKCYFPYLENGYNQNYGRKFVQGKSIDVACHPGYALPKAQTTVTCMENGWSPTPRCIRVKTCSKSSIDIENGFISESQYTYALKEKAKYQCKLGYVTADGETSGSITCGKDGWSAQPTCIKSCDIPVFMNARTKNDFTWFKLNDTLDYECHDGYESNTGSTTGSIVCGYNGWSDLPICYERECELPKIDVHLVPDRKKDQYKVGEVLKFSCKPGFTIVGPNSVQCYHFGLSPDLPICKEQVQSCGPPPELLNGNVKEKTKEEYGHSEVVEYYCNPRFLMKGPNKIQCVDGEWTTLPVCIVEESTCGDIPELEHGWAQLSSPPYYYGDSVEFNCSESFTMIGHRSITCIHGVWTQLPQCVAIDKLKKCKSSNLIILEEHLKNKKEFDHNSNIRYRCRGKEGWIHTVCINGRWDPEVNCSMAQIQLCPPPPQIPNSHNMTTTLNYRDGEKVSVLCQENYLIQEGEEITCKDGRWQSIPLCVEKIPCSQPPQIEHGTINSSRSSQESYAHGTKLSYTCEGGFRISEENETTCYMGKWSSPPQCEGLPCKSPPEISHGVVAHMSDSYQYGEEVTYKCFEGFGIDGPAIAKCLGEKWSHPPSCIKTDCLSLPSFENAIPMGEKKDVYKAGEQVTYTCATYYKMDGASNVTCINSRWTGRPTCRDTSCVNPPTVQNAYIVSRQMSKYPSGERVRYQCRSPYEMFGDEEVMCLNGNWTEPPQCKDSTGKCGPPPPIDNGGITSFPLSVYAPASSVEYQCQNLYQLEGNKRITCRNGQWSEPPKCLHPCVISREIMENYNIALRWTAKQKLYSRTGESVEFVCKRGYRLSSRSHTLRTTCWDGKLEYPTCAKR
notes: complement factor H, human, full-length, with the aHUS-linked substitution D1119G (CCP 19); Expression-optimized synthetic DNA; Secreted from P. pastoris, so the native signal peptide is probably absent (surmise); also called rFH(D1119G); rFH; source: Pichia pastoris (vector pPICZαB), purified as described for rFH

Target: T1, human C3b (human, UniProt P01024 23-667; P01024 749-1663)
T1 construct: Amine coupled to the SPR chips (C1 or CM5); source: bought: Complement Technologies, plasma-derived, used without further purification
Assay: SPR; C3b (~250 RU) or C3d (~70 RU) amine coupled to adjacent flow cells of a Biacore C1 chip; FH preincubated with or without a 2-fold molar excess of PspCN injected (90 s, 30 μl/min, 400 s dissociation); 1:1 binding model
Settings: both partners purified

T1 sequence (P01024 23-667, chain 1 of 2): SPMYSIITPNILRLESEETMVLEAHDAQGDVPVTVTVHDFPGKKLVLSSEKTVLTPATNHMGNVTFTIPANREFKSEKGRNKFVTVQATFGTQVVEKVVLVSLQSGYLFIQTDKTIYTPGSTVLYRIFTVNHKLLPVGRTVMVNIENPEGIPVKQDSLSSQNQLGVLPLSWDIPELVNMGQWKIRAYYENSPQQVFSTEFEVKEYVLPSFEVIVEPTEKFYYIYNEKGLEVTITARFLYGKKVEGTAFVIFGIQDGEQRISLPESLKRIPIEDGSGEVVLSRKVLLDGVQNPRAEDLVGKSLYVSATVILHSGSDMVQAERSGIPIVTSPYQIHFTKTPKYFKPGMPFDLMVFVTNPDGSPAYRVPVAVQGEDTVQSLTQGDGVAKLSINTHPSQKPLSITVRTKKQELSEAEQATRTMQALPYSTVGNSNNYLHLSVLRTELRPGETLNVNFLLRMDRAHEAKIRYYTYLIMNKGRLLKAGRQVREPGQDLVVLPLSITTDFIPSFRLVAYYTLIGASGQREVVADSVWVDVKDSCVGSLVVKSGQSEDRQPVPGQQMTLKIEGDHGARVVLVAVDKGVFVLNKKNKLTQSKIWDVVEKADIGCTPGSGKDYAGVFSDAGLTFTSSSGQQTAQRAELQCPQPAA
T1 sequence (P01024 749-1663, chain 2 of 2): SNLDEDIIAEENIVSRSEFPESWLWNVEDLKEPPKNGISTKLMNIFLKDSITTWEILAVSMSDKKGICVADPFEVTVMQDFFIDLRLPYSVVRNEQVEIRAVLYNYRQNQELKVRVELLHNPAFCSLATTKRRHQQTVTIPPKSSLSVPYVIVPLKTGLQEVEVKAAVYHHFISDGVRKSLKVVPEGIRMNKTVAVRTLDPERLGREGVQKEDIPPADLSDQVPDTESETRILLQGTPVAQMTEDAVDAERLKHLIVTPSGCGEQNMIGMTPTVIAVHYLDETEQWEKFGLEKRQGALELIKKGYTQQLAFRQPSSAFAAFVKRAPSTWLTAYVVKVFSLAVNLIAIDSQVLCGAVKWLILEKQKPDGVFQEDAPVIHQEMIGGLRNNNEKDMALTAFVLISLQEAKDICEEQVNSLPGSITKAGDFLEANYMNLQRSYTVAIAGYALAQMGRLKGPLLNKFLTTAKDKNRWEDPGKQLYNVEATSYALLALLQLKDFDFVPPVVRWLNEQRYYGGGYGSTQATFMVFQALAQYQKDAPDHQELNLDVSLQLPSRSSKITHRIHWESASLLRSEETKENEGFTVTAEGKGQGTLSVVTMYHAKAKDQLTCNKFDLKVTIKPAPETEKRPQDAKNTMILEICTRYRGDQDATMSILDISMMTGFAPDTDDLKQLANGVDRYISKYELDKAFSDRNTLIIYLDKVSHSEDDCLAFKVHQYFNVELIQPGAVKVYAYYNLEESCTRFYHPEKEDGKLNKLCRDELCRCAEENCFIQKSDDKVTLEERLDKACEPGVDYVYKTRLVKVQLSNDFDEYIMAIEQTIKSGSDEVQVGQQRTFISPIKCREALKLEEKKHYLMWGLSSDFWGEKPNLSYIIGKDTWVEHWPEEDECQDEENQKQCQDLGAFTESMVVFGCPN

Binder | Kd
B1 | 490 nM
B2 | 600 nM
B3 | 540 nM
